Data on five variants can be found in IntAct's records for PubMed 33053355.

The chains are these.
B1: GRB10-interacting GYF protein 1 (Homo sapiens), O75420 (parent)
chain: MAAETLNFGPEWLRALSGGGSVASPPPSPAMPKYKLADYRYGREEMLALYVKENKVPEELQDKEFAAVLQDEPLQPLALEPLTEEEQRNFSLSVNSVAVLRLMGKGAGPPLAGTSRGRGSTRSRGRGRGDSCFYQRSIEEGDGAFGRSPREIQRSQSWDDRGERRFEKSARRDGARCGFEEGGAGPRKEHARSDSENWRSLREEQEEEEEGSWRLGAGPRRDGDRWRSASPDGGPRSAGWREHGERRRKFEFDLRGDRGGCGEEEGRGGGGSSHLRRCRAPEGFEEDKDGLPEWCLDDEDEEMGTFDASGAFLPLKKGPKEPIPEEQELDFQGLEEEEEPSEGLEEEGPEAGGKELTPLPPQEEKSSSPSPLPTLGPLWGTNGDGDETAEKEPPAAEDDIRGIQLSPGVGSSAGPPGDLEDDEGLKHLQQEAEKLVASLQDSSLEEEQFTAAMQTQGLRHSAAATALPLSHGAARKWFYKDPQGEIQGPFTTQEMAEWFQAGYFSMSLLVKRGCDEGFQPLGEVIKMWGRVPFAPGPSPPPLLGNMDQERLKKQQELAAAALYQQLQHQQFLQLVSSRQLPQCALREKAALGDLTPPPPPPPQQQQQQLTAFLQQLQALKPPRGGDQNLLPTMSRSLSVPDSGRLWDVHTSASSQSGGEASLWDIPINSSTQGPILEQLQLQHKFQERREVELRAKREEEERKRREEKRRQQQQEEQKRRQEEEELFRRKHVRQQELLLKLLQQQQAVPVPPAPSSPPPLWAGLAKQGLSMKTLLELQLEGERQLHKQPPPREPARAQAPNHRVQLGGLGTAPLNQWVSEAGPLWGGPDKSGGGSSGLGLWEDTPKSGGSLVRGLGLKNSRSSPSLSDSYSHLSGRPIRKKTEEEEKLLKLLQGIPRPQDGFTQWCEQMLHTLSATGSLDVPMAVAILKEVESPYDVHDYIRSCLGDTLEAKEFAKQFLERRAKQKASQQRQQQQEAWLSSASLQTAFQANHSTKLGPGEGSKAKRRALMLHSDPSILGYSLHGSSGEIESVDDY
partner: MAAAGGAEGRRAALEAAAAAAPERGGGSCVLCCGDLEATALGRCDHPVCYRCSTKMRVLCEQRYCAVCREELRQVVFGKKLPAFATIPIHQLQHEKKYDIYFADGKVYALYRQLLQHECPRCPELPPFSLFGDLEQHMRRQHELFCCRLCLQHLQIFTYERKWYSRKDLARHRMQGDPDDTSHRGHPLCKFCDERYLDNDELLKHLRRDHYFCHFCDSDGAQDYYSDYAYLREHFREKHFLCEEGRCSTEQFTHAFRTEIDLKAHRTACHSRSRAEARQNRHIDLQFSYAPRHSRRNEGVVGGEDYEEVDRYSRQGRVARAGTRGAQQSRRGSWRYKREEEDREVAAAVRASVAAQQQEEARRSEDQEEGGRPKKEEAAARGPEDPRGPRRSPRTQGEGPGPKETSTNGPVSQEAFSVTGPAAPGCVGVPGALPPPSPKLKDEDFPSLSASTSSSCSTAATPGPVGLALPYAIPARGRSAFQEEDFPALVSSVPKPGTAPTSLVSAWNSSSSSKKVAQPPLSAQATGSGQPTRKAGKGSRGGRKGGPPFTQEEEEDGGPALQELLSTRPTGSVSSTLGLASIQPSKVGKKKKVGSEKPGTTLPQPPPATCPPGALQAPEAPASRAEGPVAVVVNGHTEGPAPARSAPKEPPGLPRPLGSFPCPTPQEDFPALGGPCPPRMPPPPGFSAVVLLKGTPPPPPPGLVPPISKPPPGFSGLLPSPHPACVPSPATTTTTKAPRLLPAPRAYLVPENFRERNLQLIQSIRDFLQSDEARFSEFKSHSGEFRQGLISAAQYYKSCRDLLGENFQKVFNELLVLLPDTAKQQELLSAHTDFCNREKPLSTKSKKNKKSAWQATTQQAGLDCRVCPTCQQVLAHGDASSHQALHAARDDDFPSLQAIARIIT
B2: GRB10-interacting GYF protein 2 (Homo sapiens), Q6Y7W6-1 (parent)
chain: MAAETQTLNFGPEWLRALSSGGSITSPPLSPALPKYKLADYRYGREEMLALFLKDNKIPSDLLDKEFLPILQEEPLPPLALVPFTEEEQRNFSMSVNSAAVLRLTGRGGGGTVVGAPRGRSSSRGRGRGRGECGFYQRSFDEVEGVFGRGGGREMHRSQSWEERGDRRFEKPGRKDVGRPNFEEGGPTSVGRKHEFIRSESENWRIFREEQNGEDEDGGWRLAGSRRDGERWRPHSPDGPRSAGWREHMERRRRFEFDFRDRDDERGYRRVRSGSGSIDDDRDSLPEWCLEDAEEEMGTFDSSGAFLSLKKVQKEPIPEEQEMDFRPVDEGEECSDSEGSHNEEAKEPDKTNKKEGEKTDRVGVEASEETPQTSSSSARPGTPSDHQSQEASQFERKDEPKTEQTEKAEEETRMENSLPAKVPSRGDEMVADVQQPLSQIPSDTASPLLILPPPVPNPSPTLRPVETPVVGAPGMGSVSTEPDDEEGLKHLEQQAEKMVAYLQDSALDDERLASKLQEHRAKGVSIPLMHEAMQKWYYKDPQGEIQGPFNNQEMAEWFQAGYFTMSLLVKRACDESFQPLGDIMKMWGRVPFSPGPAPPPHMGELDQERLTRQQELTALYQMQHLQYQQFLIQQQYAQVLAQQQKAALSSQQQQQLALLLQQFQTLKMRISDQNIIPSVTRSVSVPDTGSIWELQPTASQPTVWEGGSVWDLPLDTTTPGPALEQLQQLEKAKAAKLEQERREAEMRAKREEEERKRQEELRRQQEEILRRQQEEERKRREEEELARRKQEEALRRQREQEIALRRQREEEERQQQEEALRRLEERRREEEERRKQEELLRKQEEEAAKWAREEEEAQRRLEENRLRMEEEAARLRHEEEERKRKELEVQRQKELMRQRQQQQEALRRLQQQQQQQQLAQMKLPSSSTWGQQSNTTACQSQATLSLAEIQKLEEERERQLREEQRRQQRELMKALQQQQQQQQQKLSGWGNVSKPSGTTKSLLEIQQEEARQMQKQQQQQQQHQQPNRARNNTHSNLHTSIGNSVWGSINTGPPNQWASDLVSSIWSNADTKNSNMGFWDDAVKEVGPRNSTNKNKNNASLSKSVGVSNRQNKKVEEEEKLLKLFQGVNKAQDGFTQWCEQMLHALNTANNLDVPTFVSFLKEVESPYEVHDYIRAYLGDTSEAKEFAKQFLERRAKQKANQQRQQQQLPQQQQQQPPQQPPQQPQQQDSVWGMNHSTLHSVFQTNQSNNQQSNFEAVQSGKKKKKQKMVRADPSLLGFSVNASSERLNMGEIETLDDY
partner: B1 partner
B3: GRB10-interacting GYF protein 2 (Homo sapiens), Q6Y7W6-1 (parent)
chain: B2 chain

Variants of B1 are the subject of the first assay. The settings on record: with zn598_human ZNF598, Q86UK7.
For Y479A;F490A;W498A;F504A, the “effect of a mutation on the interaction” value is reported as “disrupting interaction strength”.

In the next assay the parent is B2. The settings on record: with zn598_human ZNF598, Q86UK7.
For the variant Y538A;F549A;W557A;F563A, the “effect of a mutation on the interaction” value is “disrupting interaction strength”.

Variants of B3 are the subject of another assay. Conditions: with EIF4E2, O60573-1.
EIF4E2, O60573-1, sequence (O60573 whole entry): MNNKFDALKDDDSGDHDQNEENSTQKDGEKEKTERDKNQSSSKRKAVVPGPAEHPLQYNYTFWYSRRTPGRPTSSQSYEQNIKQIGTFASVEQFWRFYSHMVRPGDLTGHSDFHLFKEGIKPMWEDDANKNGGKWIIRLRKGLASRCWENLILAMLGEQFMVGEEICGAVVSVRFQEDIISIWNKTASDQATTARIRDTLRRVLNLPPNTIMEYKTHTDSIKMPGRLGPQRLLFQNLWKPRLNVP
W288A;F300A;F306A: the “effect of a mutation on the interaction” value is listed as “with no effect”.
The same measure, in the same setting: the result for Y41A;Y43A;M48A;L49A reads “disrupting interaction strength”.
Still for that read-out and setting: under Y538A;F549A;W557A;F563A stands “with no effect”.

The next assay covers variants of B3. Conditions: with rl22l_human RPL22L1, Q6P5R6.
For Y538A;F549A;W557A;F563A, the “effect of a mutation on the interaction” value was “with no effect”.
